Measurements published in patent US6033845.

Experiments:
[1] = target: 7B-maltose binding protein fusion protein (Feline Infectious Peritonitis Virus (Applicant's field isolate)) [MBP: P0AEX9]; conditions: scale: colonies, mean less control, at 20 µg/ml 7B
[2] = target: maltose binding protein (Escherichia coli (strain K12)) [MBP: P0AEX9]

Substance: white blood cells from a cat known to have clinical FIP (cat #88) (cells without a defined receptor)
- No. of Colonies (T-cell colony stimulation, two days) [1]: 31
- No. of Colonies (T-cell colony stimulation, two days) (colonies, mean less control) [2]: -1
